Assay [1] deals with T1, human GIP receptor (human), P48546.
T1 chain: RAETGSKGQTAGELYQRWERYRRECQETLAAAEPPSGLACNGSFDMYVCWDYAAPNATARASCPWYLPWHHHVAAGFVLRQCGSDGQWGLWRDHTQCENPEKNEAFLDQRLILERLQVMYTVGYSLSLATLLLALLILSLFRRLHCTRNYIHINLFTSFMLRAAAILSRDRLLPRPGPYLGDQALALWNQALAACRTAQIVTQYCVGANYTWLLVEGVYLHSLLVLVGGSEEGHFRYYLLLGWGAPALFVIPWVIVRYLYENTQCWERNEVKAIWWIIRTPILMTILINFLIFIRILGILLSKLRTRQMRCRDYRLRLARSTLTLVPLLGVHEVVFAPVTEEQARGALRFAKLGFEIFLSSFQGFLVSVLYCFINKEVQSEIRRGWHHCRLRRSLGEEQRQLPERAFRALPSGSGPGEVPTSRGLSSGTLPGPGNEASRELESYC
The assay is described as follows: 125I-GIP displacement by 10 nM analog, HEK-GIPR membranes.

Assay [2] concerns the target T2, GIP receptor (GIP RBA, RIN), P43219.
T2 chain: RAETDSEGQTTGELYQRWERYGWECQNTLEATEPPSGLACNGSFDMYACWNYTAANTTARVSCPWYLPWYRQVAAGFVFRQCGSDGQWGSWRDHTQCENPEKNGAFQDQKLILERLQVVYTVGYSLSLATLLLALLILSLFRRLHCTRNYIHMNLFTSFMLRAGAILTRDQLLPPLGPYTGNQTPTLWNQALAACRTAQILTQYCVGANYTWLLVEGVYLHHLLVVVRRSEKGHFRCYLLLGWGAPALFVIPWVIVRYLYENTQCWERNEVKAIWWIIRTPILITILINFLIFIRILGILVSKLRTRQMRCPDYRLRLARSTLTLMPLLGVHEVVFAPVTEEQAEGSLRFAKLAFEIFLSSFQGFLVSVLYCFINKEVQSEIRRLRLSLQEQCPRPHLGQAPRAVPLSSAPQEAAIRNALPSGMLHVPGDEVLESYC
The assay can be described thus: cell-based or functional assay.

The target is the same in assay [3]. The assay is described as follows: cell-based or functional assay.

The record followed here is US20110136737A1.

Like-named read-outs stand apart in the source and are kept apart here.

Molecule YAEGFISDYSIAMDKIHQQDFVNWLLAQKPSPKKIRYS (modifications not checked) [0601GIP4820] yielded a % Inh at 10 nM in assay [1] of 46%.

For the molecule YAEGTFISDYSIAMDKIHQQDFVNWLLAQKPKGKGKS (modifications not checked) [0601GIP4700], in assay [1], the % Inh at 10 nM was found to be 86.6%.

In turn, YAEGTFISEYSIAMDKIHQQDFVNWLLAQKPSSGAPPPS (modifications not checked) [0601GIP4151] registered a Cyclase in assay [2] of 10000.

On to YAEGTFISDYSIAMDKIHQQDFVNWLLAQAPSSGAPPPS (modifications not checked) [0601GIP4165], for which, in assay [2], the Cyclase worked out at 40.

In turn, LYAEGTFISDYSIAMDKIHQQDFVNWLLAQKPKKIRYS (modifications not checked) [0601GIP4798] had a % Inh at 10 nM in assay [1] of 82.3%.

Turning to LYAEGTFISDYSIALDKIAQQEFVNWLLAQKPKKIRYS (modifications not checked) [0601GIP4803], the % Inh at 10 nM in assay [1] is 89.9%.

Take LYAEGTFISDYSIALDKIAQQEFVNWLLAQKPKKIRYS (modifications not checked) [0601GIP4802]: the % Inh at 10 nM in assay [1] came to 87.3%.

In assay [1], IYAEGTFISDYSIAMDKIHQQDFVNWLLAQKPKKIRYS (modifications not checked) [0601GIP4801] gave a % Inh at 10 nM of 88.8%.

On to YAEGTFISDYSIALDKIHQQDFVNWLLAQKPKKIRYS (modifications not checked) [0601GIP4807], for which the % Inh at 10 nM in assay [1] is 96.1%.

In the case of YAEGTFISDYSIAMDKIHQQDFVPWLLAQKPKKIRYS (modifications not checked) [0601GIP4768], the % Inh at 10 nM in assay [1] worked out at 17.9%.

YAEGTFISDYSIAMDKIHQQDFVNWLLAQKPKKIRYA (modifications not checked) [0601GIP4819] gave a % Inh at 10 nM in assay [1] of 80.4%.

YAEGTFISDYSIAMDKIHQQDFVNWLLAQKPKKLKPS (modifications not checked) [0601GIP4822] displayed a % Inh at 10 nM in assay [1] of 95.4%.

Molecule HGEGTFISDYSIALDKIRQQEFVNWLLAQKPKKIRYS (modifications not checked) [0601GIP4842] displayed a % Inh at 10 nM in assay [1] of 40.8%.

YSEGTFISDYSIAMDKIHQQDFVNWLLAQKPKKIRYS (modifications not checked) [0601GIP4538] gave a % Inh at 10 nM in assay [1] of 94.2%.

HAEGTFISDYSIAMDKIHQQDFVNWLLAQKPKKIRYS (modifications not checked) [0601GIP4840] registered a % Inh at 10 nM in assay [1] of 44.1%.

The molecule YAEGTFISDYSIAMDKIHQQDFVNPLLAQKPKKIRYS (modifications not checked) [0601GIP4770] yielded a % Inh at 10 nM in assay [1] of 10.8%.

Molecule YAEGTFISDYSIAMDKIHQQDFVNWLEAQKPKKIRYS (modifications not checked) [0601GIP4771] returned a % Inh at 10 nM in assay [1] of 17.8%.

In the case of YAEGTFISDYSIAMDKIHQQDFVNWLLAQKPKAIRYS (modifications not checked) [0601GIP4816], the % Inh at 10 nM in assay [1] was determined as 87.3%.

Consider HGEGTFISDYSIALDKIAQQEFVNWLLAQKPKKIRYS (modifications not checked) [0601GIP4841], for which, in assay [1], the % Inh at 10 nM is 56.6%.

In turn, YAEGTFISDYSIALDKIRQQDFVEWLLAQKPKKIRYS (modifications not checked) [0601GIP4540] showed a % Inh at 10 nM in assay [1] of 92.2%.

In the case of HGEGTFISDYSIAMDKIHQQDFVNWLLAQKPKKIRYS (modifications not checked) [0601GIP4839], the % Inh at 10 nM in assay [1] was 23.9%.

Take YAEGTFISDYSIAMDKIHQQDFVNWLLAQKPKKIRYS (modifications not checked) [0601GIP4762]: the % Inh at 10 nM in assay [1] worked out at 79.1%.

YAEGTFISDYSIAMDKIHQQDFVNELLAQKPKKIRYS (modifications not checked) [0601GIP4769]: the % Inh at 10 nM in assay [1] is 42.8%.

For YAEGTFISDYSIAMDKIHQQDFVNWLLAQKPKKIRYS (modifications not checked) [0601GIP4233], the % Inh at 10 nM in assay [1] was found to be 89%.

As for YAEGTFISDYSIALDKIAQQEFVNWLLAQKPKKIRYS (modifications not checked) [0601GIP4631], in assay [1], the % Inh at 10 nM stood at 79%.

YADGTFISDYSIAMDKIHQQDFVNWLLAQKPKKIRYS (modifications not checked) [0601GIP4390]: in assay [1], the % Inh at 10 nM was 90.3%.

YAEGTFISDYSIAMDKIHQQDFVNWLLAQKPKSARPS (modifications not checked) [0601GIP4821] showed a % Inh at 10 nM in assay [1] of 93.5%.

YAEGTFISDYSIAMDKIHQQDFVNWLLAQKPAKIRYS (modifications not checked) [0601GIP4815] came in with a % Inh at 10 nM in assay [1] of 89%.

Take YAEGTFISDYSIALDKIRQQEFVNWLLAQKPKKIRYS (modifications not checked) [0601GIP4539]: the % Inh at 10 nM in assay [1] was 98.7%.

YAEGTFISDYSIAMDKIHQQDFVNWLLAQKAKKIRYS (modifications not checked) [0601GIP4814]: the % Inh at 10 nM in assay [1] is 88%.

Regarding YSDGTFISDYSIAMDKIHQQDFVNWLLAQKPKKIRYS (modifications not checked) [0601GIP4386], the % Inh at 10 nM in assay [1] came to 93.6%.

In turn, YAEGTFISDYSIAMDKIHQQDFVNWLLAQKPSKEIIH (modifications not checked) [0601GIP4710] registered a % Inh at 10 nM in assay [1] of 79.2%.

Regarding YAEGTFISDYSIAMDKIHQQDFVNWLLAQKPSKEIIS (modifications not checked) [0601GIP4765], the % Inh at 10 nM in assay [1] stood at 67%.

As to YAEGTFISDYSIAMDKIHQQDFVNWLLAQKGFVLWKGIQ (modifications not checked) [0601GIP4619], the % Inh at 10 nM in assay [1] turned out to be 84.6%.

On to GYAEGTFISDYSIAMDKIHQQDFVNWLLAQKPSSGAPPPS (modifications not checked) [0601GIP4178], for which the Cyclase in assay [3] is 36.2; in assay [2], 96.

Molecule GYAEGTFISDYSIAMDKIRQQDFVNWLLAQKPSSGAPPPS (modifications not checked) [0601GIP4293] displayed a Cyclase in assay [3] of 20.

The molecule YAEGTFISDYSIAMDKIHQQDFVNWLLAQKPSPKKIRYS (modifications not checked) [0601GIP4823] came in with a % Inh at 10 nM in assay [1] of 94.1%.
